B1: MMP-2 (protein)
chain: YNFFPRKPKWDKNQITYRIIGYTPDLDPETVDDAFARAFQVWSDVTPLRFSRIHDGEADIMINFGRWEHGDGYPFDGKDGLLAHAFAPGTGVGGDSHFDDDELWTLGEGQVVRVKYGNADGEYCKFPFLFNGKEYNSCTDTGRSDGFLWCSTTYNFEKDGKYGFCPHEALFTMGGNAEGQPCKFPFRFQGTSYDSCTTEGRTDGYRWCGTTEDYDRDKKYGFCPETAMSTVGGNSEGAPCVFPFTFLGNKYESCTSAGRSDGKMWCATTANYDDDRKWGFCPDQGYSLFLVAAHEFGHAMGLEHSQDPGALMAPIYTYTKNFRLSQDDIKGIQELYGASPDIDLGTGPTPTLGPVTPEICKQDIVFDGIAQIRGEIFFFKDRFIWRTVTPRDKPMGPLLVATFWPELPEKIDAVYEAPQEEKAVFFAGNEYWIYSASTLERGYPKPLTSLGLPPDVQRVDAAFNWSKNKKTYIFAGDKFWRYNEVKKKMDPGFPKLIADAWNAIPDNLDAVVDLQGGGHSYFFKGAYYLKLENQSLKSVKFGSIKSDWLGC
B2: MMP-7 (protein)
chain: YSLFPNSPKWTSKVVTYRIVSYTRDLPHITVDRLVSKALNMWGKEIPLHFRKVVWGTADIMIGFARGAHGDSYPFDGPGNTLAHAFAPGTGLGGDAHFDEDERWTDGSSLGINFLYAATHELGHSLGMGHSSDPNAVMYPTYGNGDPQNFKLSQDDIKGIQKLYGKRSNSRKK
B3: MMP-1 (protein)
chain: FVLTEGNPRWEQTHLTYRIENYTPDLPRADVDHAIEKAFQLWSNVTPLTFTKVSEGQADIMISFVRGDHRDNSPFDGPGGNLAHAFQPGPGIGGDAHFDEDERWTNNFREYNLHRVAAHELGHSLGLSHSTDIGALMYPSYTFSGDVQLAQDDIDGIQAIYGRSQNPVQPIGPQTPKACDSKLTFDAITTIRGEVMFFKDRFYMRTNPFYPEVELNFISVFWPQLPNGLEAAYEFADRDEVRFFKGNKYWAVQGQNVLHGYPKDIYSSFGFPRTVKHIDAALSEENTGKTYFFVANKYWRYDEYKRSMDPGYPKMIAHDFPGIGHKVDAVFMKDGFFYFFHGTRQYKFDPKTKRILTLQKANSWFNCRKN

Columns and labels:
[1] = biological target: N-2-[(7-methoxy-2-oxo-2H-chromen-4-yl)acetyl]-L-arginyl-L-prolyl-L-leucylglycyl-6-(benzyloxy)-L-norleucyl-3-[(2,4-dinitrophenyl)amino]-L-alanyl-L-alanyl-L-arginyl-L-alpha-glutamyl-L-argininamide
[2] = biological target: N-2-[(7-methoxy-2-oxo-2H-chromen-4-yl)acetyl]-L-arginyl-L-prolyl-L-leucylglycyl-L-leucyl-3-[(2,4-dinitrophenyl)amino]-L-alanyl-L-alanyl-L-arginyl-L-alpha-glutamyl-L-argininamide
[3] = biological target: N-2-[(7-methoxy-2-oxo-2H-chromen-4-yl)acetyl]-D-arginyl-L-prolyl-L-leucylglycyl-6-phenoxy-L-norleucyl-3-[(2,4-dinitrophenyl)amino]-L-alanyl-L-alanyl-D-arginyl-D-alpha-glutamyl-D-argininamide
[4] = biological target: N-2-[(7-methoxy-2-oxo-2H-chromen-4-yl)acetyl]-D-arginyl-L-prolyl-L-leucylglycyl-L-leucyl-3-[(2,4-dinitrophenyl)amino]-L-alanyl-L-alanyl-D-arginyl-D-alpha-glutamyl-D-argininamide
[5] = biological target: N-2-[(7-methoxy-2-oxo-2H-chromen-4-yl)acetyl]-L-arginyl-L-prolyl-L-leucylglycyl-L-leucyl-3-[(2,4-dinitrophenyl)amino]-L-alanyl-L-alanyl-D-arginyl-D-alpha-glutamyl-D-argininamide
[6] = biological target: N-2-[(7-methoxy-2-oxo-2H-chromen-4-yl)acetyl]-D-arginyl-L-prolyl-L-leucylglycyl-6-(benzyloxy)-L-norleucyl-3-[(2,4-dinitrophenyl)amino]-L-alanyl-L-alanyl-D-arginyl-D-alpha-glutamyl-D-argininamide

Protein	Km [1] [µM]	kcat/Km [1] [M⁻¹ s⁻¹]	Km [2] [µM]	kcat/Km [2] [M⁻¹ s⁻¹]	Km [3] [µM]	kcat/Km [3] [M⁻¹ s⁻¹]	Km [4] [µM]	kcat/Km [4] [M⁻¹ s⁻¹]	Km [5] [µM]	kcat/Km [5] [M⁻¹ s⁻¹]	Km [6] [µM]	kcat/Km [6] [M⁻¹ s⁻¹]
B1	8.3	1.34e+06	16.5	565000	3.6	1.96e+06	9.9	178000	16.3	681000	3.7	600000
B2		0	26.4	142000		0	81.2	22000	25	120000	94.7	2980
B3		0	16	255000		0	49	57000	17.3	176000	35.1	3600
